Broadly, the Kd is the concentration at which binding is half-saturated.

We go through 1 substance from publication PMC12116771.

Series [1] deals with Scd6 (His-Scd6-FLAG, unmethylated) (Saccharomyces cerevisiae). The series can be described thus: EMSA. Conditions: EMSA: 10 mM Tris pH 8, 50 mM NaCl, 0.05% NP-40, 6% glycerol, 1 mM DTT, 2 ug/ml BSA, 0.5 ug/ml tRNA, 30 C 30 min; 2.5% agarose, 1x MOPS, EtBr. On the technique in general: Mobility shift assays separate free from complexed probe on a gel.
The test system of series [2] is Scd6 (His-Scd6-FLAG), arginine-methylated in vitro by Hmt1 (Saccharomyces cerevisiae). The series is described as follows: EMSA. Conditions: EMSA: 10 mM Tris pH 8, 50 mM NaCl, 0.05% NP-40, 6% glycerol, 1 mM DTT, 2 ug/ml BSA, 0.5 ug/ml tRNA, 30 C 30 min; 2.5% agarose, 1x MOPS, EtBr.

Consider SRS2 5'UTR 200-mer RNA, for which the dissociation constant (Kd) in series [1] was determined as 2860 nM; in series [2], 2700 nM.
